{"source": "patent US20110177059A1", "about": "“PSA AND KLK2 AS THERAPEUTIC TARGETS AND MOLECULES INHIBITING PSA AND KLK2” (UNIVERSITY OF ROCHESTER, priority 2008, published 2011)", "test_system": "LN-PSA cells", "assay": "MTT assay with PSA proteinase inhibitor, LN-PSA cells", "format": "cell-based, human", "conditions": "1000 ng/ml, vs vehicle 1x PBS", "description": "Cells of stable transfected LNCaP, CWR22rv1, PC-3 and Du145 sublines were seeded in 24-well tissue culture plates at a density of 5000 cells/well in media containing 10% CD-FBS with 1 nM DHT. At the indicated time points, the medium was replenished and determined cell proliferation by MTT [3-(4,5-dimethylthiazol-2-yl)-2,5-diphenyltetrazolium bromide assay. Serum-free medium containing MTT (0.5 mg/ml, Sigma) was added into each well and after 4 h incubation at 37° C., cellular formazan product was dissolved with acidic isopropanol, and the absorbance at OD595 was measured by spectrophotometry (Beckman Du640B). 6 replicate wells were used for each sample at each time point. a-Antichymotrypsin (MP Biomedicals, Inc) at a concentration of 1000 ng/ml was used in the MTT assay as a PSA proteinase inhibitor to treat the LNCaP cell sublines. LN-PSA, LN-siPSA cells were grown in 100-mm dishes. The cells were digested by trypsin-EDTA, harvested as many as 1×10^6 cells, and fixed them in 70% ethanol at 4° C. After 12 h, cells were centrifuged (1000 g, 7 min, 4° C.), and resuspended in PBS containing 0.05 mg/ml RNase A (Sigma), and then incubated at room temperature for 30min. After washing, the cells were stained with […] propidium iodide, filtered through a […], and analyzed 10,000 cells by flow cytometry (FACSCalibur, BD Company) with MODFIT software (Verity Software House, Inc).", "data": [{"molecule": "α1-antichymotrypsin: PSA protease inhibitor (MP Biomedicals), used at 1000 ng/ml (protein, UniProt P01011 24-423, looked up) Alpha-1-antichymotrypsin: HPNSPLDEENLTQENQDRGTHVDLGLASANVDFAFSLYKQLVLKAPDKNVIFSPLSISTALAFLSLGAHNTTLTEILKGLKFNLTETSEAEIHQSFQHLLRTLNQSSDELQLSMGNAMFVKEQLSLLDRFTEDAKRLYGSEAFATDFQDSAAAKKLINDYVKNGTRGKITDLIKDLDSQTMMVLVNYIFFKAKWEMPFDPQDTHQSRFYLSKKKWVMVPMMSLHHLTIPYFRDEELSCTVVELKYTGNASALFILPDQDKMEEVEAMLLPETLKRWRDSLEFREIGELYLPKFSISRDYNLNDILLQLGIEEAFTSKADLSGITGARNLAVSQVVHKAVLDVFEEGTEASAATAVKITLLSALVETRTIVRFNRPFLMIIVPTDTQNIFFMSKVTNPKQA", "values": [{"measurement": "PSA-induced cell growth (MTT)", "result": "limited influence"}, {"measurement": "PSA-induced cell growth (MTT)", "setting": "listed as ACT", "result": "not significantly changed"}]}]}
